Patent US20250262210A1 (TRUSTEES OF COLUMBIA UNIVERSITY IN THE CITY OF NEW YORK, published 2025)

What was measured:
EMC1 = molecular target: T1, EMC1 (human, UniProt Q8N766 23-993, limits assumed); assay: IP/MS, LZTR1 wild type-FLAG, U87
T1 sequence (looked up): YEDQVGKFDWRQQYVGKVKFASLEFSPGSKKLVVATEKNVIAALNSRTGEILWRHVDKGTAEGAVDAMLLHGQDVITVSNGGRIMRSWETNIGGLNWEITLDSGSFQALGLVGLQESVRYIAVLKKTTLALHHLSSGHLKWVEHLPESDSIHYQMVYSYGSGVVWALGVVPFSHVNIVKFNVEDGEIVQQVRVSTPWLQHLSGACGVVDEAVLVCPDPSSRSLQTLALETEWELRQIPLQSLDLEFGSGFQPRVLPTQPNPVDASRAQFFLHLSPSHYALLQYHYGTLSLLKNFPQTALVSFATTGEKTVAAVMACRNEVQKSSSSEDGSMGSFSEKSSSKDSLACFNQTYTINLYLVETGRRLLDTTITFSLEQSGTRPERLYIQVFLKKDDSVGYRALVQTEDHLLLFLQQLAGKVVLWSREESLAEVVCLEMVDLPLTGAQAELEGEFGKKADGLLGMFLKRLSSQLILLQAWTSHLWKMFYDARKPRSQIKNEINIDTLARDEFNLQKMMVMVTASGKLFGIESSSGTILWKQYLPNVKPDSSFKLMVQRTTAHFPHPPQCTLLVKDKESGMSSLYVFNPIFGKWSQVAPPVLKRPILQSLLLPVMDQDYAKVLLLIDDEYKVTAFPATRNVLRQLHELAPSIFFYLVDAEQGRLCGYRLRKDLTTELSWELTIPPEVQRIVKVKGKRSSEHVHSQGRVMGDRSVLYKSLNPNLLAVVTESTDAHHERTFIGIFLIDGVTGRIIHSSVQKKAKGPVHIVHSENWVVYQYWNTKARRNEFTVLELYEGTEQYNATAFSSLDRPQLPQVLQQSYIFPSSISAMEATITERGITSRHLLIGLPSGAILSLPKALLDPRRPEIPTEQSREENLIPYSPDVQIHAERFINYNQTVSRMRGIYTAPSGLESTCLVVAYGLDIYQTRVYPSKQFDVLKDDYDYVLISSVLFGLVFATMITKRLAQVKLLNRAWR
Procedure, shortened: (§1)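 Gel slices were reduced with 5 mM DTT, alkylated with 11 mM IAA and digested overnight at 37° C. with trypsin. Peptides were analysed on an Orbitrap Fusion Tribrid by LC-MS/MS.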

RPAP1 = molecular target: T2, RPAP1 (human, UniProt Q9BWH6 1-1393, limits assumed); assay: IP/MS, LZTR1 wild type-FLAG, U87
T2 sequence (looked up): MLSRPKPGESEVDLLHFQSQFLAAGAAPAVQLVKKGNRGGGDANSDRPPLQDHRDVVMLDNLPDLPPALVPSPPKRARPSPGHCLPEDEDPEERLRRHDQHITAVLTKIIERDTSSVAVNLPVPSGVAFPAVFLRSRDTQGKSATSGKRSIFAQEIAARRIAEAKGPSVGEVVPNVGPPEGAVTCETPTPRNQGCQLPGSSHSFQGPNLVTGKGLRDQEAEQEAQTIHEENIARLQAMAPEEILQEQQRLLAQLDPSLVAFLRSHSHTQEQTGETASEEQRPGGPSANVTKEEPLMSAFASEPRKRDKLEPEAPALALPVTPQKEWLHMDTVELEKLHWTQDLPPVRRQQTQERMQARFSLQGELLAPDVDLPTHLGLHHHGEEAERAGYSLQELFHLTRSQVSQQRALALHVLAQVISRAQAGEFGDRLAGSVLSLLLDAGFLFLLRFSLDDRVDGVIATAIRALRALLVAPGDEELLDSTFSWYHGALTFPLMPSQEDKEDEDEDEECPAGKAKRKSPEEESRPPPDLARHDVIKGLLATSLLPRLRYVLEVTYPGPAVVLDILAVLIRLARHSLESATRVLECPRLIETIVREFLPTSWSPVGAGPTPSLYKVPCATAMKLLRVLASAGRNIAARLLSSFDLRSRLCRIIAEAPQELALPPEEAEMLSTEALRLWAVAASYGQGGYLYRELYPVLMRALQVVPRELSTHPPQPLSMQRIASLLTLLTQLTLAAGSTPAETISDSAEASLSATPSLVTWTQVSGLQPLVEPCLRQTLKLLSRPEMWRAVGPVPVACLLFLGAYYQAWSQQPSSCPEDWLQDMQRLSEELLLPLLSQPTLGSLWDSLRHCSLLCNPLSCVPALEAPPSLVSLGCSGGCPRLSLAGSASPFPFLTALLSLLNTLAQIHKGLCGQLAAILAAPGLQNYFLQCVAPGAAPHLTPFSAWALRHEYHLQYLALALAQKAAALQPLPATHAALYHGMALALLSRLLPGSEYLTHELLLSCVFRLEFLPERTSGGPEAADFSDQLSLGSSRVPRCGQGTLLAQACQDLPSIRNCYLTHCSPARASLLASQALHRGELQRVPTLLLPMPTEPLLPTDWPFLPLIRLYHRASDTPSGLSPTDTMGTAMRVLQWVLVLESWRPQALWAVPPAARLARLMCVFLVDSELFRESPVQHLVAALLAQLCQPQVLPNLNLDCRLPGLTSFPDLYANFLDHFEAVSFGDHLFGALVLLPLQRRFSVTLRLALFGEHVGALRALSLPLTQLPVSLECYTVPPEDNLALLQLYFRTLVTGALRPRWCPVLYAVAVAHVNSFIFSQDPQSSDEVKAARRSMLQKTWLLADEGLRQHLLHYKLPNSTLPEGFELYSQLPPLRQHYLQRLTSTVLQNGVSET
Procedure, shortened: as §1

binding result (EMC1): binds | binding result (RPAP1): binds
B1: LZTR1-FLAG (other, human, UniProt Q8N653 1-840, looked up)
chain: MAGPGSTGGQIGAAALAGGARSKVAPSVDFDHSCSDSVEYLTLNFGPFETVHRWRRLPPCDEFVGARRSKHTVVAYKDAIYVFGGDNGKTMLNDLLRFDVKDCSWCRAFTTGTPPAPRYHHSAVVYGSSMFVFGGYTGDIYSNSNLKNKNDLFEYKFATGQWTEWKIEGRLPVARSAHGATVYSDKLWIFAGYDGNARLNDMWTIGLQDRELTCWEEVAQSGEIPPSCCNFPVAVCRDKMFVFSGQSGAKITNNLFQFEFKDKTWTRIPTEHLLRGSPPPPQRRYGHTMVAFDRHLYVFGGAADNTLPNELHCYDVDFQTWEVVQPSSDSEVGGAEVPERACASEEVPTLTYEERVGFKKSRDVFGLDFGTTSAKQPTQPASELPSGRLFHAAAVISDAMYIFGGTVDNNIRSGEMYRFQFSCYPKCTLHEDYGRLWESRQFCDVEFVLGEKEECVQGHVAIVTARSRWLRRKITQARERLAQKLEQEAAPVPREAPGVAAGGARPPLLHVAIREAEARPFEVLMQFLYTDKIKYPRKGHVEDVLLIMDVYKLALSFQLCRLEQLCRQYIEASVDLQNVLVVCESAARLQLSQLKEHCLNFVVKESHFNQVIMMKEFERLSSPLIVEIVRRKQQPPPRTPLDQPVDIGTSLIQDMKAYLEGAGAEFCDITLLLDGHPRPAHKAILAARSSYFEAMFRSFMPEDGQVNISIGEMVPSRQAFESMLRYIYYGEVNMPPEDSLYLFAAPYYYGFYNNRLQAYCKQNLEMNVTVQNVLQILEAADKTQALDMKRHCLHIIVHQFTKVSKLPTLRSLSQQLLLDIIDSLASHISDKQCAELGADI
notes: Expressed in HEK 293T, HeLa or U87 cells; used as cell lysate; also called LZTR1 wild type-FLAG; LZTR1 WT; not shown: FLAG tag at the C-terminus
